Measured values taken from US20150344570A1 (published 2015).
Where a chain is given by its changes, count along the chain named. In names and notes the source's numbering stands. Blank lines part the entries; values can stand above or below the binder they belong to.

Columns and labels:
FcγRIIIa F = FcγRIIIa F (human, UniProt P08637 17-208); assay: SPR (Biacore), KD; the variant that showed the most enhancement
FcγRIIIa V = FcγRIIIa V (human, UniProt P08637 17-208); assay: as above
FcγRIIa R = FcγRIIa R (human, UniProt P12318 34-217); assay: SPR (Biacore), KD; showed the most enhancement
FcγRIIa H = FcγRIIa H (human, UniProt P12318 34-217); assay: SPR (Biacore), KD; showed the most enhancement
FcγRIIIa = biological target: T1, FcγRIIIa (human, UniProt P08637 17-208); assay: SPR (Biacore); KD of GpH7-TA7/GpH7-B78/GpL16-k0 for FcγRIIIa divided by the KD of this antibody (this row is the reference itself)
T1 construct: extracellular domain; Soluble extracellular domain with a C-terminal His tag, expressed in FreeStyle293 cells and used as the analyte in Biacore; also called FcgRIIIa; CD16A; not shown: His tag attached to the C terminus
T1 sequence (P08637 17-208): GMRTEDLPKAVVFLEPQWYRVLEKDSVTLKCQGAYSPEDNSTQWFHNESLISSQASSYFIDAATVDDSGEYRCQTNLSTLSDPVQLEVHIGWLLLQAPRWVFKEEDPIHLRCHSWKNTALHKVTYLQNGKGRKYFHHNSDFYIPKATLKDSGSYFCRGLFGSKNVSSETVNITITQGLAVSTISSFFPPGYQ
Description: The prepared antibodies were compared for the FcγRIIIa-binding activity using, as an indicator, KD for FcγRIIIa that was determined according to the method described in Reference Example 2.
Analysis of interaction between objective antibody and the FcγR was carried out using Biacore T100 (GE Healthcare). HBS-EP+ (GE Healthcare) was used as the running buffer, and the measurement temperature was set to 25° C. Chips produced by immobilizing the antigen peptide by the amine coupling method to a Series S Sencor Chip CM5 (GE Healthcare), or alternatively, chips produced by allowing preliminarily biotinylated antigen peptides to interact with and immobilize onto a Series S Sensor Chip SA (certified) (GE Healthcare) were used. Antibodies of interest were captured onto an antigen peptide-immobilized chip, and allowed to interact to each FcγR diluted with running buffer. To regenerate and repeatedly use the chip, the antibodies captured on the chip were washed off by reacting 10 mM glycine-HCl, pH 1.5.
Specifically, to calculate association rate constant ka (L/mol/s) and dissociation rate constant kd (1/s), sensorgrams obtained by measurement were processed for global fitting by Biacore Evaluation Software using 1:1 Langmuir binding model and dissociation constant KD (mol/1) was calculated from the resulting values.

FcgRIa = biological target: T2, FcgRIa (human, UniProt P12314 16-292); assay: SPR (Biacore); KD of GpH7-Kn033/GpH7-Hl033/GpL16-k0 for this FcγR divided by KD of this antibody (reference itself)
T2 construct: extracellular domain; also called FcγRIa; FcγRI
T2 sequence (P12314 16-292): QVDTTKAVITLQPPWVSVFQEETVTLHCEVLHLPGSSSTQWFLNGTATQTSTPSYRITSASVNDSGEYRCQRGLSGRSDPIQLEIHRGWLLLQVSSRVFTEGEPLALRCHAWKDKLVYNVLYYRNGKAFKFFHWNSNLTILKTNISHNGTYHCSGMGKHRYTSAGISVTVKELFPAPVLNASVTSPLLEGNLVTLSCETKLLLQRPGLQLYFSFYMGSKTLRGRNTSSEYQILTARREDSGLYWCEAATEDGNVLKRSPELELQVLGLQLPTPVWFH

FcgRIIa R = biological target: T3, FcgRIIa R (human, UniProt P12318 34-217); assay: as above
T3 construct: extracellular domain; also called FcγRIIa R; FcγRIIa type R
T3 sequence (looked up): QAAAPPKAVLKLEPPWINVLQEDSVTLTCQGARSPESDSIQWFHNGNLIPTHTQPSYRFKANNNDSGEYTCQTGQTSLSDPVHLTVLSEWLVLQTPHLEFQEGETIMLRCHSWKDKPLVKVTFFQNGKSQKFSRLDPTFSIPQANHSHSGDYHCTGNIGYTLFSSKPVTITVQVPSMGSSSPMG

FcgRIIIa V = biological target: T4, FcgRIIIa V (human, UniProt P08637 17-208); assay: as above
T4 construct: extracellular domain; also called FcγRIIIa V; FcγRIIIaV
T4 sequence (P08637 17-208 F176V limits assumed): as the sequence (P08637 17-208) above, with F160V counted along it

FcgRIIIa F = biological target: T5, FcgRIIIa F (human, UniProt P08637 17-208); assay: as above
T5 construct: extracellular domain; also called FcγRIIIa F; FcγRIIIaF
T5 sequence (P08637 17-208): as the sequence (P08637 17-208) above

FcgRIIb = biological target: T6, FcgRIIb (human, UniProt P31994 43-217); assay: as above
T6 construct: extracellular domain; also called FcγRIIb; CD32B
T6 sequence (looked up): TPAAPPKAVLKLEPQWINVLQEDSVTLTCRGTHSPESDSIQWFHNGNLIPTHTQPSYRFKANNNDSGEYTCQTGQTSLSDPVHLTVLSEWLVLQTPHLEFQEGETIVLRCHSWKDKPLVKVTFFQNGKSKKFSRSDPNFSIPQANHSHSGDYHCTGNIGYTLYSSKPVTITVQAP

FcgRIIa H = biological target: T7, FcgRIIa H (human, UniProt P12318 34-217); assay: as above
T7 construct: extracellular domain; also called FcγRIIa H; FcγRIIa type H
T7 sequence (looked up): T3 sequence (looked up) with R134H

Sequence of FcγRIIIa V (P08637 17-208): as the sequence (P08637 17-208) above
Sequence of FcγRIIIa F (P08637 17-208): as the sequence (P08637 17-208) above

fold binding activity against H240-Kn033/H240-Hl033/L73-k0 (FcγRIIa R): 83 fold
fold binding activity against H240-Kn033/H240-Hl033/L73-k0 (FcγRIIa H): 33 fold
B3: H240-Kn231/H240-Hl068/L73-k0 (antibody, human IgG1, kappa)
heavy 1: QDQLVQSGAEVKKPGASVKVSCKASGFNIKDTYIQWVRQAPGQGLEWMGRIDPLRKQTKYREKFEGRVTITADTSTNTAYMELSSLRSEDTAVYYCVRSGREFDYWGQGTLVTVSSASTKGPSVFPLAPSSKSTSGGTAALGCLVKDYFPEPVTVSWNSGALTSGVHTFPAVLQSSGLYSLSSVVTVPSSSLGTQTYICNVNHKPSNTKVDKKVEPKSCDKTHTCPPCPAPEIYWGPIVFLFPPKPKDTLMISRTPEVTCVVVDVSDEDPEVKFNWYVDGVEVHNAKTKPREEQYNATYRVVSVLTVLHQDWLNGKEYKCKVSNKDLPAPIEKTISKAKGQPREPQVCTLPPSRDELTKNQVSLWCLVKGFYPSDIAVEWESNGQPENNYKTTPPVLDSDGSFFLYSKLTVDKSRWQQGNVFSCSVMHEALHNHYTQKSLSLSP
heavy 2: QDQLVQSGAEVKKPGASVKVSCKASGFNIKDTYIQWVRQAPGQGLEWMGRIDPLRKQTKYREKFEGRVTITADTSTNTAYMELSSLRSEDTAVYYCVRSGREFDYWGQGTLVTVSSASTKGPSVFPLAPSSKSTSGGTAALGCLVKDYFPEPVTVSWNSGALTSGVHTFPAVLQSSGLYSLSSVVTVPSSSLGTQTYICNVNHKPSNTKVDKKVEPKSCDKTHTCPPCPAPELLGGPSVFLFPPKPKDTLMISRTPEVTCVVVDVSHEEPEVKFNWYVDGVEVHNAKTKPREEQYNSTYRVVSVLTVLHQDWLNGKEYKCKVSNDALPKPIEETISKAKGQPREPQVYTLPPSRCELTKNQVSLSCAVKGFYPSDIAVEWESNGQPENNYKTTPPVLDSDGSFFLVSKLTVDKSRWQQGNVFSCSVMHEALHNHYTQKSLSLSP
light: DIQMTQSPSSLSASVGDRVTITCRASQDIHKYIAWYQQKPGQAPRLLIQYTSTLQPGVPSRFSGSGSGTDYTFTISSLQPEDIATYYCLQYEQLRTFGGGTKVEIKRTVAAPSVFIFPPSDEQLKSGTASVVCLLNNFYPREAKVQWKVDNALQSGNSQESVTEQDSKDSTYSLSSTLTLSKADYEKHKVYACEVTHQGLSSPVTKSFNRGEC

KD ratio (FcγRIIIa): 1
B4: GpH7-TA7/GpH7-B78/GpL16-k0 (antibody, human IgG1, kappa)
heavy 1: QVQLVQSGAEVKKPGASVTVSCKASGYTFTDYEMHWIRQPPGEGLEWIGAIDPKTGDTAYSESFQDRVTLTADKSTSTAYMELSSLTSEDTAVYYCTRFYSYTYWGQGTLVTVSSASTKGPSVFPLAPSSKSTSGGTAALGCLVKDYFPEPVTVSWNSGALTSGVHTFPAVLQSSGLYSLSSVVTVPSSSLGTQTYICNVNHKPSNTKVDKKVEPKSCDKTHTCPPCPAPEYLWGPSVFLFPPKPKDTLMISRTPEVTCVVVDVSHEDPEVKFNWYVDGVEVHNAKTKPREEQYNATYRVVSVLTVLHQDWLNGKEYKCKVSNKALPAPIEKTISKAKGQPREPQVYTLPPSRKELTKNQVSLTCLVKGFYPSDIAVEWESNGQPENNYKTTPPVLDSDGSFFLYSKLTVDKSRWQQGNVFSCSVMHEALHNRYTQKSLSLSP
heavy 2: B4 heavy 1 with Y232L, W234G, S237D, A296S, A328L, I330E, K354D, R433H, K437E
light: DIVMTQSPLSLPVTPGEPASISCQASESLVHSNRNTYLHWYLQKPGQSPQLLIYKVSNRFSGVPDRFSGSGSGTDFTLKISRVEAEDVGVYYCSQNTHVPPTFGQGTKVEIERTVAAPSVFIFPPSDEQLKSGTASVVCLLNNFYPREAKVQWKVDNALQSGNSQESVTEQDSKDSTYSLSSTLTLSKADYEKHKVYACEVTHQGLSSPVTKSFNRGEC
notes: Heterodimerized anti-glypican-3 IgG1 antibody with two different H chains (same variable region GpH7) and a common L chain; also called TA7/B78

KD ratio (FcgRIa): 1 fold
KD ratio (FcgRIIa R): 1 fold
KD ratio (FcgRIIIa V): 1 fold
KD ratio (FcgRIIIa F): 1 fold
KD ratio (FcgRIIb): 1 fold
KD ratio (FcgRIIa H): 1 fold
B5: GpH7-Kn033/GpH7-Hl033/GpL16-k0 (antibody, human IgG1, kappa)
heavy 1: not shown
heavy 2: not shown
light: B4 light
notes: Anti-glypican-3 antibody; knobs-into-holes alone applied to G1d (knob chain Y349C/T366W; hole chain D356C/T366S/L368A/Y407V); also called Kn033/Hl033

More lines, now with the values behind:

B1: H240-Kn227/H240-Hl214/L73-k0 (antibody, human IgG1, kappa)
heavy 1: B3 heavy 1 with I233E, Y234Q, D269E, D326A
heavy 2: B3 heavy 2 with K329F
light: B3 light
notes: 330 F in H240-Hl076
fold binding activity against H240-Kn033/H240-Hl033/L73-k0 (FcγRIIIa F): 161 fold

B2: H240-Kn203/H240-Hl210/L73-k0 (antibody, human IgG1, kappa)
heavy 1: B3 heavy 1 with I233F, I238M
heavy 2: B3 heavy 2 with K329A
light: B3 light
notes: 330 A in H240-Hl076
fold binding activity against H240-Kn033/H240-Hl033/L73-k0 (FcγRIIIa V): 107 fold
